B1: TAPBPR (luminal domain, C94A), TEV-digested (unzippered) (other)
chain: KPHPAEGQWRAVDVVLDCFLVKDGAHRGALASSEDRARASLVLKQVPVLDDGSLEDFTDFQGGTLAQDDPPIIFEASVDLVQIPQAEALLHADASGKEVTCEISRYFLQMTETTVKTAAWFMANVQVSGGGPSISLVMKTPRVAKNEVLWHPTLNLPLSPQGTVRTAVEFQVMTQTQSLSFLLGSSASLDCGFSMAPGLDLISVEWRLQHKGRGQLVYSWTAGQGQAVRKGATLEPAQLGMARDASLTLPGLTIQDEGTYICQITTSLYRAQQIIQLNIQASPKVRLSLANEALLPTLICDIAGYYPLDVVVTWTREELGGSPAQVSGASFSSLRQSVAGTYSISSSLTAEGSAGATYTCQVTHISLEEPLGASTQVVPPERRLEGAGGSGGGGSGGGASGGGGSENLYFQS
notes: also called un-zippered (TEV cleaved) TAPBPR; chaperone TAPBPR
B2: Whole Z2 construct (TAPBPR, JUN), leucine-zippered TAPBPR with Strep tags (other)
chain: KPHPAEGQWRAVDVVLDCFLVKDGAHRGALASSEDRARASLVLKQVPVLDDGSLEDFTDFQGGTLAQDDPPIIFEASVDLVQIPQAEALLHADASGKEVTCEISRYFLQMTETTVKTAAWFMANVQVSGGGPSISLVMKTPRVAKNEVLWHPTLNLPLSPQGTVRTAVEFQVMTQTQSLSFLLGSSASLDCGFSMAPGLDLISVEWRLQHKGRGQLVYSWTAGQGQAVRKGATLEPAQLGMARDASLTLPGLTIQDEGTYICQITTSLYRAQQIIQLNIQASPKVRLSLANEALLPTLICDIAGYYPLDVVVTWTREELGGSPAQVSGASFSSLRQSVAGTYSISSSLTAEGSAGATYTCQVTHISLEEPLGASTQVVPPERRLEGAGGSGGGGSGGGASGGGGSENLYFQSSGGGGSKVDGGGGGRIARLEEKVKTLKAQNSELASTANMLREQVAQLKQVMNWSHPQFEKGGGSGGGSGGSAWSHPQFEKAA

Key:
[1] = target: T1, single-chain MHC-I (beta2 microglobulin-(GGGS)4-HLA-A*02:01 ectodomain-AviTag), TEV-digested (unzippered), … (human); test: size exclusion chromatography after TEV cleavage
T1 construct: also called peptide receptive MHC-I complex; unzippered MHC-I

[2] = target: single-chain HLA-A*24:02 (beta2 microglobulin-linker-HLA-A*24:02 ectodomain-AviTag), TEV-digested, CHO-derived (human); test: co-expression, Strep tag purification, TEV digestion, size exclusion chromatography
[3] = target: T2, Whole Z1 construct (B2m, HLA-A*02:01, FOS), leucine-zippered single-chain MHC-I (human); test: co-expression in CHO cells, purification by the Strep tag on TAPBPR, SDS PAGE
T2 construct: also called single-chain-Fos; single-chain MHC-I-B2M protein

| Binder | binding result [1] | binding result [2] | binding result [3] |
| --- | --- | --- | --- |
| B1 | binds | binds |  |
| B2 |  |  | binds |

Source: patent US20210155670A1 (University of California, published 2021)
